From paper PMC3337841

Molecular target: FRET-GATE-16 (human) (UniProt P60520)
Sequence (P60520 whole entry): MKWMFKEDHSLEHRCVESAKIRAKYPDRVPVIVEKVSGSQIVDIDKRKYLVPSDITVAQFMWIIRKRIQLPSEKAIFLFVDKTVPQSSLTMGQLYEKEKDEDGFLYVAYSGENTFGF

Atg4A (from UniProt Q8WYN0 1-398) (enzyme)
catalytic efficiency (kcat/KM) of cleavage, FRET-based assay, 37°C, Buffer B: 1310 mol^−1S^−1
